In test [1] the target is RBD of the S protein of SARS-CoV-2 (Wuhan-Hu-1) (SARS-CoV-2 (Wuhan-Hu-1)) (UniProt P0DTC2). The test can be described thus: BLI; Octet RED96e; RBD (Wuhan-Hu-1) immobilised on HIS1K biosensors; analyte 50-3.125 nM miniACE2 or 100-3.125 nM MP-5ff in 1x PBS, 0.02% Tween-20, 0.1% BSA; association 1 min, dissociation 3 min; 1:1 binding model.
Test [2] deals with MP-5ff (miniACE2-(GGGGS)5-foldon, trivalent) (bacteriophage T4). The test can be described thus: SEC.
In test [3] the target is MP-3fc (miniACE2-(GGGGS)3-coiled-coil, trivalent). The test can be described thus: SEC. Background: In gel filtration, larger molecules generally elute earlier.
In test [4] the target is MP-5fc (miniACE2-(GGGGS)5-coiled-coil, trivalent). The test can be described thus: SEC.
For test [5], the target named is MP-3rc (miniACE2-(EAAAK)3-coiled-coil, trivalent). The test can be described thus: SEC.
Test [6] addresses MP-5rc (miniACE2-(EAAAK)5-coiled-coil, trivalent). The test can be described thus: SEC.
The target of test [7] is MP-5rf (miniACE2-(EAAAK)5-foldon, trivalent) (bacteriophage T4). The test can be described thus: SEC.
For test [8], the target named is MP-3ff (miniACE2-(GGGGS)3-foldon, trivalent) (bacteriophage T4). The test can be described thus: SEC.
In test [9] the target is MP-3rf (miniACE2-(EAAAK)3-foldon, trivalent) (bacteriophage T4). The test can be described thus: SEC.

Bounds are passed on as bounds.

By Kd is commonly meant the free concentration of one partner at which half of the binding sites on the other are occupied at equilibrium, for simple one-to-one binding. One may read the koff as the rate constant with which the complex falls apart. One may read the stoichiometry N as a count of units in the complex or per binding partner. As for “MP-5ff (miniACE2-(GGGGS)5-foldon, trivalent) (designed binder)”, in test [1], the Kd is below 0.001 nM and the koff is below 1e-07 s⁻¹. The stoichiometry N in test [2] is 3.

Regarding “MP-3fc (miniACE2-(GGGGS)3-coiled-coil, trivalent) (designed binder)”, the stoichiometry N in test [3] came out at 3. For the substance “MP-5fc (miniACE2-(GGGGS)5-coiled-coil, trivalent) (designed binder)”, the stoichiometry N in [4] was 3.

With “MP-3rc (miniACE2-(EAAAK)3-coiled-coil, trivalent) (designed binder)”, in test [5], the stoichiometry N amounted to 3. The substance “MP-5rc (miniACE2-(EAAAK)5-coiled-coil, trivalent) (designed binder)” showed a stoichiometry N in test [6] of 3. The substance “MP-5rf (miniACE2-(EAAAK)5-foldon, trivalent) (designed binder)” yielded a stoichiometry N in [7] of 3. “MP-3ff (miniACE2-(GGGGS)3-foldon, trivalent) (designed binder)”: the stoichiometry N in test [8] was 3. With “MP-3rf (miniACE2-(EAAAK)3-foldon, trivalent) (designed binder)”, the stoichiometry N in test [9] turned out to be 3. For the substance “miniACE2 (microprotein LCB3) (designed binder)”, in test [1], the Kd is 1.03 nM and the koff came out at 0.000986 s⁻¹.

(Values after article PMC10858482.)
